{"source": "patent US20030032592A1", "about": "(published 2003)", "binders": {"B1": {"name": "CIR, amino acids 226-450, Gal4 activation-domain fusion (prey clone) (other, yeast (Saccharomyces cerevisiae);human, UniProt P04386 768-881, looked up, not shown: small tags and cut ends)", "chain": "ANFNQSGNIADSSLSFTFTNSSNGPNLITTQTNSQALSQPIASSNVHDNFMNNEITASKIDDGNNSKPLSPGWTDQTAYNAFGITTGMFNTTTMDDVYNYLFDDEDTPPNPKKERKLDRLEKKKKKKDRKKKKFQKSRSKHKKHKSSSSSSSSSSSSSSTETSESSSESESNNKEKKIQRKKRKKNKCSGHNNSDSEEKDKSKKRKLHEELSSSHHNREKAKEKPRFLKHESSREDSKWSHSDSDKKSRTHKHSPEKRGSERKEGSSRSHGREERSRRSRSRSPGSYKQRETRKRAQRNPGEEQSRRNDSRSHGTDLYRGEKMYREHPGGTHTKVTQRE", "notes": "range 768-881;range 226-450; Clone from the human brain cDNA library in pACT2; also called transcription factor CIR"}, "B2": {"name": "EIF3S1, amino acids 94-254, Gal4 activation-domain fusion (prey clone) (other, yeast (Saccharomyces cerevisiae);human, UniProt P04386 768-881, looked up, not shown: small tags and cut ends)", "chain": "ANFNQSGNIADSSLSFTFTNSSNGPNLITTQTNSQALSQPIASSNVHDNFMNNEITASKIDDGNNSKPLSPGWTDQTAYNAFGITTGMFNTTTMDDVYNYLFDDEDTPPNPKKEEIKKRLEEPEEPKVLTPEEQLADKLRLKKLQEESDLELAKETFGVNNAVYGIDAMNPSSRDDFTEFGKLLKDKITQYEKSLYYASFLEVLVRDVCISLEIDDLKKITNSLTVLCSEKQKQEKQSKAKKKKKGVVPGGGLKATMKDDLADYGGYDGGYVQDY", "notes": "range 768-881;range 94-254; Clone from the human brain cDNA library in pACT2; also called translation initiation factor EIF3S1"}, "B3": {"name": "Oxysterol liver X receptor alpha (LXR-alpha), amino acids 95-277, Gal4 DNA-binding-domain fusion (bait) (receptor, UniProt P04386 1-147, looked up)", "chain": "MKLLSSIEQACDICRLKKLKCSKEKPKCAKCLKNNWECRYSPKTKRSPLTRAHLTEVESRLERLEQLFLLIFPREDLDMILKMDSLQDIKALLTGLFVQDNVNKDAVTDRLASVETDMPLTLRQHRISATSSSEESSNKGQRQLTVSNELCSVCGDKASGFHYNVLSCEGCKGFFRRSVIKGAHYICHSGGHCPMDTYMRRKCQECRLRKCRQAGMREECVLSEEQIRLKKLKRQEEEQAHATSLPPRASSPPQILPQLSPEQLGMIEKLVAAQQQCNRRSFSDRLRVTPWPMAPDPHSREARQQRFAHFTELAIVSVQEIVDFAKQLPG", "notes": "range 1-147;range 95-277; Bait made by PCR from brain cDNA and expressed in yeast from vector pGBTQ as a C-terminal fusion to Gal4 DBD"}, "B4": {"name": "Oxysterol liver X receptor alpha (LXR-alpha), amino acids 95-156, Gal4 DNA-binding-domain fusion (bait) (receptor, UniProt P04386 1-147, looked up)", "chain": "MKLLSSIEQACDICRLKKLKCSKEKPKCAKCLKNNWECRYSPKTKRSPLTRAHLTEVESRLERLEQLFLLIFPREDLDMILKMDSLQDIKALLTGLFVQDNVNKDAVTDRLASVETDMPLTLRQHRISATSSSEESSNKGQRQLTVSNELCSVCGDKASGFHYNVLSCEGCKGFFRRSVIKGAHYICHSGGHCPMDTYMRRKCQECRLR", "notes": "range 1-147;range 95-156; Bait expressed in yeast from pGBTQ as a C-terminal fusion to Gal4 DBD"}, "B5": {"name": "Homer-3, amino acids 182-354, Gal4 activation-domain fusion (prey clone) (other, yeast (Saccharomyces cerevisiae);human, UniProt P04386 768-881, looked up, not shown: small tags and cut ends)", "chain": "ANFNQSGNIADSSLSFTFTNSSNGPNLITTQTNSQALSQPIASSNVHDNFMNNEITASKIDDGNNSKPLSPGWTDQTAYNAFGITTGMFNTTTMDDVYNYLFDDEDTPPNPKKEEVQWEAEFFALQDSNNKLAGALREANAAAAQWRQQLEAQRAEAERLRQRVAELEAQAASEVTPTGEKEGLGQGQSLEQLEALVQTKDQEIQTLKSQTGGPREALEAAEREETQQKVQDLETRNAELEHQLRAMERSLEEARAERERARAEVGRAAQLLDVSLFELSELREGLA", "notes": "range 768-881;range 182-354; Clone from the human brain cDNA library in pACT2; The printed GenBank number has one digit too many"}}, "key": {"[1]": {"biological_target": "T1, Oxysterol liver X receptor alpha (LXR-alpha), amino acids 156-448, Gal4 DNA-binding-domain fusion (bait) (yeast (Saccharomyces cerevisiae), UniProt P04386 1-147; Q13133 156-447)", "T1 construct": "range 1-147;range 156-448; Bait expressed in yeast from pGBTQ as a C-terminal fusion to Gal4 DBD", "assay": "yeast two-hybrid; prey clone identified for the bait of the same row (Ex. 12)", "from_the_text": "(§1) A total human brain (person) cDNA library cloned into the yeast expression vector pACT2 was purchased from Clontech (human brain […] cDNA, cat. # HL4004AH), transformed into the yeast strain J692 (genotype of this strain: Mat a, ade2, his3, leu2, trp1, URA3::GAL1-1acZ LYS2::GAL1-HIS3 ga14del ga180del cyhR2), and selected for the ability to drive leucine synthesis. In these yeast cells, each cDNA is expressed as a fusion protein with the transcription activation domain of the transcription factor Ga14 (amino acids 768 to 881) and a 9 amino acid hemagglutinin epitope tag. J693 cells (Mat α type) expressing the bait were then mated with J692 cells ([…]) expressing proteins from the brain library. The resulting diploid yeast cells expressing proteins interacting with the bait protein were selected for the ability to synthesize tryptophan, leucine, histidine, and β-galactosidase. DNA was prepared from each clone, transformed by electroporation into E. coli strain KC8 (Clontech KC8 electrocompetent cells, cat. # C2023-1), and the cells were selected on ampicillin-containing plates in the absence of either tryptophane (selection for the bait plasmid) or leucine (selection for the brain library plasmid). DNA for both plasmids was prepared and sequenced by di-deoxynucleotide chain termination method. […]"}, "[2]": {"biological_target": "T1, Oxysterol liver X receptor alpha …", "assay": "yeast two-hybrid; prey clone identified for the bait of the same row (Ex. 9)", "from_the_text": "as §1"}, "[3]": {"biological_target": "T2, Oxysterol liver X receptor alpha (LXR-alpha), amino acids 257-448, Gal4 DNA-binding-domain fusion (bait) (yeast (Saccharomyces cerevisiae), UniProt P04386 1-147; Q13133 257-447)", "T2 construct": "range 1-147;range 257-448; Bait expressed in yeast from pGBTQ as a C-terminal fusion to Gal4 DBD", "assay": "yeast two-hybrid; prey clone identified for the bait of the same row (Ex. 8)", "from_the_text": "as §1"}, "[4]": {"biological_target": "T3, PSMD11, amino acids 87-422, Gal4 activation-domain fusion (prey clone) (yeast (Saccharomyces cerevisiae); human, UniProt P04386 768-881; O00231 87-422)", "T3 construct": "range 768-881;range 87-422; Clone from the human brain cDNA library in pACT2; also called proteasome subunit PSMD11", "assay": "yeast two-hybrid; prey clone identified for the bait of the same row (Ex. 10)", "from_the_text": "as §1"}, "[5]": {"biological_target": "T4, zyxin, amino acids 323-572, Gal4 activation-domain fusion (prey clone) (yeast (Saccharomyces cerevisiae); human, UniProt P04386 768-881; Q15942 323-572)", "T4 construct": "range 768-881;range 323-572; Clone from the human brain cDNA library in pACT2", "T4 sequence (looked up)": "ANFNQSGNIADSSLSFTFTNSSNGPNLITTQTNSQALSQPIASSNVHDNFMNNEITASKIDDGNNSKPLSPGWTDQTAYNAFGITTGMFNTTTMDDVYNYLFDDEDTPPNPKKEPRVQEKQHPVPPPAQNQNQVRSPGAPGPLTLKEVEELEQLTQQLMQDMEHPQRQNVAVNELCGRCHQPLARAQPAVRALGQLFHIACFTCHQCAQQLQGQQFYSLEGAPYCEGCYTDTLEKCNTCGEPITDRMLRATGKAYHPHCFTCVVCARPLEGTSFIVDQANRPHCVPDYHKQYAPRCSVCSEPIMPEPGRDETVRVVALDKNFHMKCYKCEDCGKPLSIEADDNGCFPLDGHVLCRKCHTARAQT", "assay": "yeast two-hybrid; prey clone identified for the bait of the same row (Ex. 4)", "from_the_text": "as §1"}, "[6]": {"biological_target": "B3", "assay": "yeast two-hybrid; prey clone identified for the bait of the same row (Ex. 6)", "from_the_text": "as §1"}}}
{"binder": "B1", "values": [{"measurement": "binding result", "setting": "[1]", "value": "binds"}]}
{"binder": "B2", "values": [{"measurement": "binding result", "setting": "[2]", "value": "binds"}, {"measurement": "binding result", "setting": "[3]", "value": "binds"}]}
{"binder": "B3", "values": [{"measurement": "binding result", "setting": "[4]", "value": "binds"}]}
{"binder": "B4", "values": [{"measurement": "binding result", "setting": "[5]", "value": "binds"}]}
{"binder": "B5", "values": [{"measurement": "binding result", "setting": "[6]", "value": "binds"}]}
